The chains are these.
B1: unnamed (parent)
chain: MFGLGHNSKEISMSHIGTKFILAEKFTFDPLSNTLIDKEDSEEIIRLGSNESRILWLLAQRPNEVISRNDLHDFVWREQGFEVDDSSLTQAISTLRKMLKDSTKSPQYVKTVPKRGYQLIARVETVEEEMARESEAAHDISQPESVNEYAESSSVPSSATVVNTPQPANVVTNKSAPNLGNRLLILIAVLLPLAVLLLTNPSQTSFKPLTVVDGVAVNMPNNHPDLSNWLPSIELCVKKYNEKHTGGLKPIEVIATGGQNNQLTLNYIHSPEVSGENITLRIVANPNDAIKVCE

The variants in this assay derive from B1. The settings on record: with partner chain of the complex shown; read off a plot.
chain 1 C293S: the response came to 45%.
The result for chain 1 C293S W76R reads 5%.

Values taken from article PMC7496328.
